Measurements reported in patent US20150307627A1.

B1: IgG-Fc-13 (VHH)
VHH: QVQLQESGGGLVQAGGSLRLSCAASGDTFSTYAMGWFRQAPGKEREFVGRIVRGTESTYLIDSVKGRFAISRDNAQNTVYLQMTSLKPEDTAVYFCVARSFGAGQWDYWGQGTQVTVSS
B2: IgG-Fc-15 (VHH)
VHH: QVQLQESGGGLVQAGGSLRLSCAVSGRGFSTYAMGWFRQAPGKEREFVGSANWKSGSIYVADSVKGRFTISNDNAQNTVYLQMSSLKPEDTAVYYCVARSFGTGQWDYWGQGTQVTVSS
B3: IgG-Fc-11 (VHH)
VHH: QVQLQESGGGLVQAGGSLRLSCAVSGRTFSTYAMGWFRQAPGKEREFVGSANWKSGSTYLVDSVKGRFTISGDNAHDTVHLQMTSLKPEDTGVYFCVARSFGTGQWDYWGQGTQVTVSS
B4: IgG-Fc-12 (VHH)
VHH: QVQLQESGGGLVQAGGSLRLSCAVSGRTFSTYAMGWFRQAPGKEREFVGSINFKSGSIYLADSVKGRFTISGDNAQNTAYLQMTSLKPEDTAVYLCVARSFGTGQWDYWGQGTQVTVSS
B5: IgG-Fc-14 (VHH)
VHH: QVQLQESGGGLVQTGGSLRLSCSASGGTFETYAMGWFRQAPGKEREFVGSTNWKSERTYVADSVKGRFTISRDNGQYTAYLQMTSLKPEDTAVYFCVARSFGTGQWDYWGQGTQVTVSS

The binders below were run against Human IgG (assay: method not given).

Ka, > 4e+09 M⁻¹:
B1
B2
B3
B4
B5
